Data: patent US5763571A, “Inhibiting protein interactions” (The General Hospital Corporation, priority 1995, dated 1998)

B1: V12Grap-1b: Rap 1b low molecular weight GTP binding protein variant, GAL4 fusion (protein)
chain: ANFNQSGNIADSSLSFTFTNSSNGPNLITTQTNSQALSQPIASSNVHDNFMNNEITASKIDDGNNSKPLSPGWTDQTAYNAFGITTGMFNTTTMDDVYNYLFDDEDTPPNPKKEMREYKLVVLGSVGVGKSALTVQFVQGIFVEKYDPTIEDSYRKQVEVDAQQCMLEILDTAGTEQFTAMRDLYMKNGQGFALVYSITAQSTFNDLQDLREQILRVKDTDDVPMILVGNKCDLEDERVVGKEQGQNLARQWNNCAFLESSAKSKINVNEIFYDLVRQINRKTPVPGKARKKSSCQLL
B2: V12Grap-1bΔCT: V12Grap-1b lacking the carboxyterminal 4 amino acids (protein)
chain: ANFNQSGNIADSSLSFTFTNSSNGPNLITTQTNSQALSQPIASSNVHDNFMNNEITASKIDDGNNSKPLSPGWTDQTAYNAFGITTGMFNTTTMDDVYNYLFDDEDTPPNPKKEMREYKLVVLGSVGVGKSALTVQFVQGIFVEKYDPTIEDSYRKQVEVDAQQCMLEILDTAGTEQFTAMRDLYMKNGQGFALVYSITAQSTFNDLQDLREQILRVKDTDDVPMILVGNKCDLEDERVVGKEQGQNLARQWNNCAFLESSAKSKINVNEIFYDLVRQINRKTPVPGKARKKSS

Molecular target: T1, Raf(1-257) (Homo sapiens, UniProt P04049)
T1 construct: expressed in transfected cells; host or cells: yeast strain GGY1::171, plasmid pMA424
Experiment: Yeast two-hybrid GAL4/lacZ interaction with Raf(1-257)
Type: cell-based
Settings: X-gal plates
Procedure: Detection of protein-protein interactions using the two-hybrid system in yeast was carried out as follows. The vector pMA424 (Chien C. T., Bartel P. L., Sternglanz, R., Fields, S., Proc. Natl. Acad. Sci. U.S.A. 88, 9578-9582 (1991)) containing either Raf(1-257) or Raf(1-257, C168 →S) DNA sequences fused in frame with the sequences encoding GAL4 (1-147), was cotransformed into yeast together with the pACTII vector containing no insert as a control, or DNA sequences encoding V12GrasH, V12GrasHΔCT, murine rap1b, or rap1bΔCT fused in frame with the GAL4 transactivation domain II. […]
The DNA sequences encoding Raf(1-257) and Raf(1-257, C168 →S) were prepared by the PCR using the plasmids RSV-C4 and RSV-PM17 (Bruder, J. T., Heidecker, G. & Rapp, U.R. Genes Dev. 6, 545-556 (1992)) respectively as templates. […] The reading frame and the C168 →S mutation were verified by DNA sequencing. […] Transformants were grown on SDHis-Leu-plates as in (Durfee, T. et al. Genes Develop. 7, 555-569 (1993); Chien C. T., Bartel P. L., Sternglanz, R., Fields, S., Proc. Natl. Acad. Sci. U.S.A. 88, 9578-9582 (1991)) for 3 days before replica plating to X-gal containing plates, which in turn were scored for blue colonies 72 hours later.
Ras effector domain mutants which impair the interaction between V12GrasHΔCT and Raf(1-257) were analyzed as follows. […]

Molecule	lacZ expression on coexpression with wild-type Raf(1-257) (in words)
B1	interact strongly
B2	interact strongly
